Measured values reported in paper PMC7506991, “Timeless couples G‐quadruplex detection with processing by DDX11 helicase during DNA replication”.

What was measured:
[1] = target: T1, Timeless (optimised construct);Tipin (Homo sapiens;Homo sapiens, UniProt Q9UNS1;Q9BVW5 1-238+=GSTGST+331-1208;1-301, internal_change|); experiment: fluorescence anisotropy; 150 mM KCl, 5 mM MgCl2; FA at 25 C, 10 nM DNA: DBD in 25 mM HEPES-NaOH pH 7.2, 150 mM KCl, 0.5 mM EDTA, 0.005% Tween-20; Timeless-Tipin in 25 mM HEPES pH 7.1, 150 mM KCl, 1 mM DTT, 5 mM MgCl2; EMSA in 25 mM HEPES pH 7.1, 150 mM KCl, 5 mM MgCl2, 1 mM DTT on ice, 1% agarose at 4 C; conditions: protein: recombinant;recombinant, tags: His14-SUMO removed;His6-GST removed, copies: 1;1, label: 5' 6FAM
T1 sequence (Q9UNS1 other isoform, or with tags, fused parts or gaps |, chain 1 of 2): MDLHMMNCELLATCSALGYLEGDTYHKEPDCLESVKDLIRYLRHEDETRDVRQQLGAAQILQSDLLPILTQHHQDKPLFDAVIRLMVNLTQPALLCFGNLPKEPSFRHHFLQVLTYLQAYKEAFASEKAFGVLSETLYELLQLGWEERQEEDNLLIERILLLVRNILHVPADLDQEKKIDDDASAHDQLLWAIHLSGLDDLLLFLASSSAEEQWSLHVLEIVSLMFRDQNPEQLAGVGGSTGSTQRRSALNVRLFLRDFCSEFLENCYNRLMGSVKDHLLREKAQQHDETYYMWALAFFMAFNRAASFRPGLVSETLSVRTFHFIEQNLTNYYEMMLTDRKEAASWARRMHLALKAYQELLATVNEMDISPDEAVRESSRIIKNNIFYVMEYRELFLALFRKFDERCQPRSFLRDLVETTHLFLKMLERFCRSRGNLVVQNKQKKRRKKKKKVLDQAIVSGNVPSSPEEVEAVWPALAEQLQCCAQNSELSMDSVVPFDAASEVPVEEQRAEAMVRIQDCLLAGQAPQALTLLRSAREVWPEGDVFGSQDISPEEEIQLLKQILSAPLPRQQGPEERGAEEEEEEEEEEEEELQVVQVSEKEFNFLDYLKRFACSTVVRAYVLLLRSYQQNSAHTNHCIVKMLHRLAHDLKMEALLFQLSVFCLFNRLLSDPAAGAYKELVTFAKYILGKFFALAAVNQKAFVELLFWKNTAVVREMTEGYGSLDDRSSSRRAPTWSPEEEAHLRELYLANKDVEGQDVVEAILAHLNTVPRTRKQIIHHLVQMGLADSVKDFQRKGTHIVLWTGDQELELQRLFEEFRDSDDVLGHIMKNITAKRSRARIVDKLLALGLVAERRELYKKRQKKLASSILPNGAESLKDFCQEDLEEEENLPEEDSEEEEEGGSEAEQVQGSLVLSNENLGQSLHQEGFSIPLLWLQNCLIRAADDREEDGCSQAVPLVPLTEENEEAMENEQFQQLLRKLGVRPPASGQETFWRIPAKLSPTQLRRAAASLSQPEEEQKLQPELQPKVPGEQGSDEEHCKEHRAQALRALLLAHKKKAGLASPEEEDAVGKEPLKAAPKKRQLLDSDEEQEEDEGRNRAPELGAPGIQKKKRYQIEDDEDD
T1 sequence (Q9BVW5 whole entry, change not shown, chain 2 of 2): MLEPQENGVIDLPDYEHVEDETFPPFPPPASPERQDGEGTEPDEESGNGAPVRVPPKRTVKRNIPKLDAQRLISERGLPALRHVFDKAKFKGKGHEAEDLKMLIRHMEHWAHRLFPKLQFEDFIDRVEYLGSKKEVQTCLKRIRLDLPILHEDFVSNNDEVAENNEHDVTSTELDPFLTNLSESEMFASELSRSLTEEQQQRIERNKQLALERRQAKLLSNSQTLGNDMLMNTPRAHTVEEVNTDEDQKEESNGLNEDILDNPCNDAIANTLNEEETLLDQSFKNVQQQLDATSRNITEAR

Timeless DBD = Timeless DBD (Homo sapiens, UniProt Q9UNS1 816-954); experiment: fluorescence anisotropy; 150 mM KCl; FA at 25 C, 10 nM DNA: DBD in 25 mM HEPES-NaOH pH 7.2, 150 mM KCl, 0.5 mM EDTA, 0.005% Tween-20; Timeless-Tipin in 25 mM HEPES pH 7.1, 150 mM KCl, 1 mM DTT, 5 mM MgCl2; EMSA in 25 mM HEPES pH 7.1, 150 mM KCl, 5 mM MgCl2, 1 mM DTT on ice, 1% agarose at 4 C; conditions: protein: recombinant, tags: His14-SUMO removed
Timeless DBD, sequence (Q9UNS1 816-954): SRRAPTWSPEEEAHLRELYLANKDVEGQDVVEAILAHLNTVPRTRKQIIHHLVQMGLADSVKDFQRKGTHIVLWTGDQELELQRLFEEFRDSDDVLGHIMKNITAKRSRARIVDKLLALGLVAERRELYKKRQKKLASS

[2] = target: T1, Timeless (optimised construct);Tipin; experiment: EMSA; 5 uM protein, 5 uM DNA; FA at 25 C, 10 nM DNA: DBD in 25 mM HEPES-NaOH pH 7.2, 150 mM KCl, 0.5 mM EDTA, 0.005% Tween-20; Timeless-Tipin in 25 mM HEPES pH 7.1, 150 mM KCl, 1 mM DTT, 5 mM MgCl2; EMSA in 25 mM HEPES pH 7.1, 150 mM KCl, 5 mM MgCl2, 1 mM DTT on ice, 1% agarose at 4 C; conditions: protein: recombinant;recombinant, tags: His14-SUMO removed;His6-GST removed, copies: 1;1, label: 5' 6FAM
[3] = G4 intramolecular with ssDNA flanks

ATAAGAGTGGTTAGAGTGTA (ssDNA) [ss20]
binding result ([1]; single strand): no binding

B1: ds20 (dsDNA)
DNA 1: ATAAGAGTGGTTAGAGTGTA
DNA 2: TACACTCTAACCACTCTTAT
binding result ([1]; blunt): no binding

TGAGAGTGAGTAGAGTGAGTAA (ssDNA) [ssDNA (Fig 2D)]
binding result (Timeless DBD; single strand): binds

B2: dsDNA (Fig 2D) (dsDNA)
DNA 1: TGAGAGTGAGTAGAGTGAGTAA
DNA 2: TTACTCACTCTACTCACTCTCA
Kd (Timeless DBD; blunt): ~800 nM

TGAGGGTGGGTAGGGTGGGTAA (structured_DNA) [G4 DNA (MYC, 1XAV) Cy3]
Kd (Timeless DBD; label: 3' Cy3, G4 intramolecular): ~120 nM

B3: ssG4 (structured_DNA)
DNA: ACGAGAGCTAGCACATTTTGAGGGTGGGTAGGGTGGGTAATTTTCACGTAGAACCTGT
Kd [1, 3]: 600 ± 30 nM

B4: ss (ssDNA)
DNA: ACGAGAGCTAGCACATTTTGAGTGTCAGTAGCGTCTGTAATTTTCACGTAGAACCTGT
binding result ([2]; single strand): no binding

TGAGGGTGGGTAGGGTGGGTAA (structured_DNA) [1XAV]
binding result ([1]; G4 intramolecular): binds

B5: BU1 +3.5 (structured_DNA)
DNA: AGCTAGCACATTTTAAGGGCTGGGTGGGTGCTGTCAAGGGCTGGGTTTTCACGTAGAA
binding result [2, 3]: binds

B6: ssHP (structured_DNA)
DNA: ACGAGAGCTAGCACATTTTGAGGCTGCGTTTCGCAGCCTCAATTTCACGTAGAACCTGT
binding result ([2]; hairpin with ssDNA flanks): no binding
